{
  "source": "the supplement of paper PMC10724198",
  "note": "± gives the standard deviation of the averaged measurements.",
  "data": [
    {"test_system": "Saccharomyces cerevisiae", "experiment": "protein stability index of tFT-peptide fusion (C-terminal peptide) (PSI (0-1 scale)); higher = more stable (slower turnover)", "conditions": "genetic background: wild type; temperature: 30 C", "procedure": "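MPS profiling in S. cerevisiae of the yeast C-terminome library: the last 12 aa of each annotated ORF are fused to the C-terminus of a sfGFP-mCherry timer, after a GGGS linker. Cells are FACS-sorted into 8 mCherry/sfGFP bins and deep-sequenced. PSI runs from 0 (unstable) to 1 (stable); wild type and das1Δ backgrounds, two technical replicates each.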", "values": [
      {"sequence": "GKEHRFGLHIRS [DPH6 C-terminal 12 aa]", "protein stability index": "0.698 ± 0.026"},
      {"sequence": "GKLAEILKPVFQ [GRX2 C-terminal 12 aa]", "protein stability index": "0.677 ± 0.0068"},
      {"sequence": "GKQKQLLFHIGV [HEL2 C-terminal 12 aa]", "protein stability index": "0.718 ± 0.035"},
      {"sequence": "GKQLLSPMGRAF [TKL2 C-terminal 12 aa]", "protein stability index": "0.6529 ± 0.0014"},
      {"sequence": "GLEHSDPFSTFY [DBF2 C-terminal 12 aa]", "protein stability index": "0.712 ± 0.025"},
      {"sequence": "GLNEVTRLIKGL [HTS1 C-terminal 12 aa]", "protein stability index": "0.641 ± 0.027"},
      {"sequence": "GLRYDMVHKLIS [SLH1 C-terminal 12 aa]", "protein stability index": "0.212 ± 0.028"},
      {"sequence": "GMISKSLKIPKP [CHO1 C-terminal 12 aa]", "protein stability index": "0.698 ± 0.0082"},
      {"sequence": "GNIVSQDLLDLF [APL2 C-terminal 12 aa]", "protein stability index": "0.7 ± 0.012"},
      {"sequence": "GPSVMCTLYLTF [ARE2 C-terminal 12 aa]", "protein stability index": "0.59105 ± 0.00058"},
      {"sequence": "GQALLDQFAKFK [LSC1 C-terminal 12 aa]", "protein stability index": "0.687 ± 0.021"},
      {"sequence": "GSNELLSILHRK [DCP2 C-terminal 12 aa]", "protein stability index": "0.694 ± 0.059"},
      {"sequence": "GSSVPLDLTLFT [VRP1 C-terminal 12 aa]", "protein stability index": "0.714 ± 0.0093"},
      {"sequence": "GSVCFIMDYFTG [VPS62 C-terminal 12 aa]", "protein stability index": "0.677 ± 0.015"},
      {"sequence": "GSYATRAYGQKK [FDH1 C-terminal 12 aa]", "protein stability index": "0.688 ± 0.018"},
      {"sequence": "GWDRLVEARSQI [EMW1 C-terminal 12 aa]", "protein stability index": "0.708 ± 0.027"},
      {"sequence": "HAERERENMIYD [YGL108C C-terminal 12 aa]", "protein stability index": "0.695 ± 0.029"},
      {"sequence": "HAQKRVSNASAR [SKI6 C-terminal 12 aa]", "protein stability index": "0.6988 ± 0.0036"},
      {"sequence": "HCLSNSASHSCG [YGR018C C-terminal 12 aa]", "protein stability index": "0.64 ± 0.014"},
      {"sequence": "HFNSSSPQKVEF [LSM4 C-terminal 12 aa]", "protein stability index": "0.738 ± 0.03"},
      {"sequence": "HGHHNSSTSGHK [PBP1 C-terminal 12 aa]", "protein stability index": "0.714 ± 0.0077"},
      {"sequence": "HKTNLTRGSFYS [YIR020W-A C-terminal 12 aa]", "protein stability index": "0.708 ± 0.041"},
      {"sequence": "HLGDPLWNFSVE [TMA20 C-terminal 12 aa]", "protein stability index": "0.707 ± 0.01"},
      {"sequence": "HLNESVYSKPLP [YIL028W C-terminal 12 aa]", "protein stability index": "0.678 ± 0.065"},
      {"sequence": "HPNIDALLKKTE [MST27 C-terminal 12 aa]", "protein stability index": "0.654 ± 0.035"},
      {"sequence": "HSNTLKRKIEQV [PUS4 C-terminal 12 aa]", "protein stability index": "0.697 ± 0.012"},
      {"sequence": "HTRRAFLIPFVF [TSC13 C-terminal 12 aa]", "protein stability index": "0.241 ± 0.011"},
      {"sequence": "HVAPYAIIPFII [DFG10 C-terminal 12 aa]", "protein stability index": "0.151 ± 0.024"},
      {"sequence": "HWRSVYDEFGEL [APE1 C-terminal 12 aa]", "protein stability index": "0.701 ± 0.024"},
      {"sequence": "IAEEIISMFAEN [YNR064C C-terminal 12 aa]", "protein stability index": "0.723 ± 0.016"},
      {"sequence": "IALAEHRVERSN [CLB3 C-terminal 12 aa]", "protein stability index": "0.701 ± 0.033"},
      {"sequence": "IAPIRIYKITKQ [EFM3 C-terminal 12 aa]", "protein stability index": "0.677 ± 0.039"},
      {"sequence": "IAREIFHNVTNF [SEC39 C-terminal 12 aa]", "protein stability index": "0.695 ± 0.037"},
      {"sequence": "IARLEKLLSGGV [LEA1 C-terminal 12 aa]", "protein stability index": "0.686 ± 0.0076"},
      {"sequence": "IAVNYGQKDLIE [BRR1 C-terminal 12 aa]", "protein stability index": "0.669 ± 0.014"},
      {"sequence": "IDLFRDAYNHEN [UPS2 C-terminal 12 aa]", "protein stability index": "0.70705 ± 3.4e-05"},
      {"sequence": "IDMLKMSNAEEY [YLR012C C-terminal 12 aa]", "protein stability index": "0.6642 ± 0.0041"},
      {"sequence": "IEIVKDAKRKGY [MRP21 C-terminal 12 aa]", "protein stability index": "0.674 ± 0.017"},
      {"sequence": "IEKNHAKFTDLT [CSH1 C-terminal 12 aa]", "protein stability index": "0.731 ± 0.017"},
      {"sequence": "IFFILYTLFKLF [SFT1 C-terminal 12 aa]", "protein stability index": "0.199 ± 0.01"},
      {"sequence": "IFLNDVYFNLMV [YPR126C C-terminal 12 aa]", "protein stability index": "0.686 ± 0.012"},
      {"sequence": "IFNATASNPFGF [SLA1 C-terminal 12 aa]", "protein stability index": "0.747 ± 0.045"},
      {"sequence": "IFVFFVIWVLVN [SED5 C-terminal 12 aa]", "protein stability index": "0.211 ± 0.015"},
      {"sequence": "IGEFADNVMPLA [PRY2 C-terminal 12 aa]", "protein stability index": "0.712 ± 0.0076"},
      {"sequence": "IGISPSQNKWEK [REX3 C-terminal 12 aa]", "protein stability index": "0.7285 ± 0.0071"},
      {"sequence": "IIRDFLIEKGFI [YNL320W C-terminal 12 aa]", "protein stability index": "0.667 ± 0.009"},
      {"sequence": "IKALQDSLFKDV [NUP188 C-terminal 12 aa]", "protein stability index": "0.705 ± 0.042"},
      {"sequence": "IKKGTPNNIAFL [YJL197C-A C-terminal 12 aa]", "protein stability index": "0.704 ± 0.017"},
      {"sequence": "IKKRKVQNRAMS [YOL038C-A C-terminal 12 aa]", "protein stability index": "0.73 ± 0.0083"},
      {"sequence": "IKTDSVHELLKK [MFM1 C-terminal 12 aa]", "protein stability index": "0.696 ± 0.0083"},
      {"sequence": "ILGNYRDIFKQA [RGA2 C-terminal 12 aa]", "protein stability index": "0.266 ± 0.077"},
      {"sequence": "ILISTIYAHCSS [HFD1 C-terminal 12 aa]", "protein stability index": "0.489 ± 0.015"},
      {"sequence": "ILLTPNNHGEMK [BDH1 C-terminal 12 aa]", "protein stability index": "0.684 ± 0.011"},
      {"sequence": "ILPIHQEDPANR [MEP1 C-terminal 12 aa]", "protein stability index": "0.686 ± 0.042"},
      {"sequence": "ILTAEKMRGNGN [RRP4 C-terminal 12 aa]", "protein stability index": "0.677 ± 0.027"},
      {"sequence": "INFHSGSIFDAC [ENV11 C-terminal 12 aa]", "protein stability index": "0.7009 ± 0.0015"},
      {"sequence": "INKDMTKKKMKF [MFG1 C-terminal 12 aa]", "protein stability index": "0.677 ± 0.029"},
      {"sequence": "IPKIPKIVNGFK [DCS1 C-terminal 12 aa]", "protein stability index": "0.6501 ± 0.0018"},
      {"sequence": "IQAKLKISVHDI [BEM1 C-terminal 12 aa]", "protein stability index": "0.681 ± 0.0069"},
      {"sequence": "IQKLNKVLEDSI [ATP5 C-terminal 12 aa]", "protein stability index": "0.675 ± 0.02"},
      {"sequence": "IRAAGGVVELIA [RPL28 C-terminal 12 aa]", "protein stability index": "0.652 ± 0.038"},
      {"sequence": "IREFLEEIVDTQ [SUS1 C-terminal 12 aa]", "protein stability index": "0.728 ± 0.091"},
      {"sequence": "ISISHSAVPNIV [YAL069W C-terminal 12 aa]", "protein stability index": "0.729 ± 0.037"},
      {"sequence": "ISLVFLWVSIEV [CSM4 C-terminal 12 aa]", "protein stability index": "0.173 ± 0.011"},
      {"sequence": "ISVYCGTTLEVM [TFC8 C-terminal 12 aa]", "protein stability index": "0.469 ± 0.013"},
      {"sequence": "ITEVNVSLEEKL [FHL1 C-terminal 12 aa]", "protein stability index": "0.7078 ± 0.0013"},
      {"sequence": "ITQARANTWLVV [YOR024W C-terminal 12 aa]", "protein stability index": "0.648 ± 0.0088"},
      {"sequence": "ITRDESTATYKY [RTT101 C-terminal 12 aa]", "protein stability index": "0.6686 ± 0.0022"},
      {"sequence": "ITRTRLDSFVKT [YBR072C-A C-terminal 12 aa]", "protein stability index": "0.6292 ± 0.0014"},
      {"sequence": "ITTKRSLCSSKD [PEX25 C-terminal 12 aa]", "protein stability index": "0.695 ± 0.02"},
      {"sequence": "IVTEWVKKPCLC [MUP3 C-terminal 12 aa]", "protein stability index": "0.489 ± 0.01"},
      {"sequence": "IYQPSRNRLVRY [YBR076C-A C-terminal 12 aa]", "protein stability index": "0.7018 ± 0.0025"},
      {"sequence": "KAFVEKLNSKKD [YBT1 C-terminal 12 aa]", "protein stability index": "0.683 ± 0.011"},
      {"sequence": "KAIEYFEEYQCW [FRE2 C-terminal 12 aa]", "protein stability index": "0.704 ± 0.052"},
      {"sequence": "KAQRSIWGKKSQ [ERV46 C-terminal 12 aa]", "protein stability index": "0.682 ± 0.018"},
      {"sequence": "KDDTPEDNLEDK [VBA5 C-terminal 12 aa]", "protein stability index": "0.71 ± 0.0088"},
      {"sequence": "KDNSVGKILNST [BOP3 C-terminal 12 aa]", "protein stability index": "0.71 ± 0.026"},
      {"sequence": "KDSELNIKSSKL [STR3 C-terminal 12 aa]", "protein stability index": "0.79 ± 0.053"},
      {"sequence": "KEDPDLRQSYQG [MGS1 C-terminal 12 aa]", "protein stability index": "0.649 ± 0.0099"},
      {"sequence": "KEESGTTSLPTI [GGA1 C-terminal 12 aa]", "protein stability index": "0.704 ± 0.011"},
      {"sequence": "KESPANDQASNE [MLP2 C-terminal 12 aa]", "protein stability index": "0.677 ± 0.032"},
      {"sequence": "KETFIQVWEKQE [SAD1 C-terminal 12 aa]", "protein stability index": "0.651 ± 0.019"}
    ]}
  ]
}
